Common to all, as to format: biochemical, Methanosarcina acetivorans
Substrate in series [1]: C[C@@H](OP(=O)(O)O)[C@H](NC(=O)CCCCCCS)C(=O)O
Nature of the series: reverse heterodisulfide reductase assay. To be noted: co-substrate HSCoM, 21 °C.

Substrate in series [2]: O=S(=O)(O)CCS
In words: reverse heterodisulfide reductase assay. To be noted: co-substrate HSCoB, 21 °C.

Substrate in series [3]: C[C@@H](OP(=O)(O)O)[C@H](NC(=O)CCCCCCSSCCS(=O)(=O)O)C(=O)O
Nature of the series: forward heterodisulfide reductase assay with reduced methyl viologen. To be noted: reduced methyl viologen as electron donor, 21 °C, HdrA2 + HdrB2C2, no ferredoxin.

As usually defined, the Km is the substrate concentration at which the rate is half of its maximum. What is called Vmax is the top rate of the reaction or transport when substrate is in excess.

B1: HdrB2C2 (Methanosarcina acetivorans C2A) (protein)
chain: MAKLSLFRGCIVPNRYPGIEKATKLCLQKLEVDAVDLPGASCCPAPGVFKSFDKATWLALASRNIVLSERMGRDILTVCNGCYGSLADANIELKNDPEMKACTNSCLKEIGMEYKGTAEVRHIIEFLYKELGPEKLKSFITTPLDLKVALHYGCHLIKPSKERNLGETEAPVFFDELVEATGAKSVDYTDKMMCCGAGGGVRSGHAAESLEMLEHKLACIRNAGVDCIVNACPFCHLQFDRGQLAVNEKFGTDYSIPVLHYSQLLGLALGFSPDELGIEQNAIQNIEFLAKIYEISAGLR
notes: with Heterodisulfide reductase subunit C2 (CoB--CoM heterodisulfide reductase iron-sulfur subunit C 2)
On to B1, for which the Km in series [1] (no HdrA2) was 1200 ± 200 µM. Also, in series [2] (no HdrA2), the Michaelis-Menten constant (Km) worked out at 1400 ± 200 µM and the maximal velocity (Vmax) came to 0.6 µmol/min/mg.

B2: HdrA2B2C2 (Methanosarcina acetivorans C2A) (protein)
chain: B1 chain
notes: complex reconstituted by mixing recombinant HdrA2 (C-terminal His6) with copurified HdrB2C2 (His6 on HdrB2); with Heterodisulfide reductase subunit C2 (CoB--CoM heterodisulfide reductase iron-sulfur subunit C 2); H(2)/F420-type heterodisulfide reductase subunit A2 (CoB--CoM heterodisulfide reductase iron-sulfur subunit A 2; HdrA-MvhD fusion)
As for B2, in series [3], the Km was found to be 50 ± 10 µM and the Vmax came out at 2.2 µmol/min/mg.

B3: HdrB2 (Methanosarcina acetivorans C2A) (protein)
chain: B1 chain
For B3, the Km in series [1] (HdrB2 alone) is 1100 ± 200 µM. Moreover, in series [2] (HdrB2 alone), the Km stood at 1200 ± 300 µM and the Vmax was 0.5 µmol/min/mg.

For the origin of these results see publication PMC5296606, “A Ferredoxin- and F420H2-Dependent, Electron-Bifurcating, Heterodisulfide Reductase with Homologs in the Domains Bacteria and Archaea” (mBio, 2017).
